EC50, NF-κB reporter activity in HEK-BLUE IL-18 cells data for one substance are collected here from US20240158457A1, “INTERLEUKIN-18 RECEPTOR BINDING POLYPEPTIDES AND USES THEREOF” (Medikine, Inc., priority 2022, published 2024).

In this experiment the target is human IL-18 receptor (alpha and beta subunits) on HEK-BLUE IL-18 reporter cells (human) (UniProt Q13478). Briefly: cell-based or functional assay.
Sequence of human IL-18 receptor (alpha and beta subunits) on HEK-BLUE IL-18 reporter cells (human) (Q13478 19-541, chain 1 of 2): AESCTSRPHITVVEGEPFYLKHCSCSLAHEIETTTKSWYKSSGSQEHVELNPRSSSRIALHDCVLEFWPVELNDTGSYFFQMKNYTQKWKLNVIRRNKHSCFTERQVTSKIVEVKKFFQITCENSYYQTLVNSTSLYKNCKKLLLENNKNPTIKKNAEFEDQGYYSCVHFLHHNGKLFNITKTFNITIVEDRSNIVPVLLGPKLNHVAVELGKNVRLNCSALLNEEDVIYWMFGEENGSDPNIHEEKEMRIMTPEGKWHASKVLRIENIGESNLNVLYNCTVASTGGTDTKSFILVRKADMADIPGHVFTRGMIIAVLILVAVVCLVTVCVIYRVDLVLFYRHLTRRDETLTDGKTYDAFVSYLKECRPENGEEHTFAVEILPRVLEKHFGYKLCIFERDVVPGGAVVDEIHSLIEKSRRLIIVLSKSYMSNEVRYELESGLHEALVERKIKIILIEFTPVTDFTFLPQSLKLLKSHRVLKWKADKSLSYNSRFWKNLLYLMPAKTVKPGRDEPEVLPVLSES
Sequence of human IL-18 receptor (alpha and beta subunits) on HEK-BLUE IL-18 reporter cells (human) (O95256 20-599, chain 2 of 2, further chain): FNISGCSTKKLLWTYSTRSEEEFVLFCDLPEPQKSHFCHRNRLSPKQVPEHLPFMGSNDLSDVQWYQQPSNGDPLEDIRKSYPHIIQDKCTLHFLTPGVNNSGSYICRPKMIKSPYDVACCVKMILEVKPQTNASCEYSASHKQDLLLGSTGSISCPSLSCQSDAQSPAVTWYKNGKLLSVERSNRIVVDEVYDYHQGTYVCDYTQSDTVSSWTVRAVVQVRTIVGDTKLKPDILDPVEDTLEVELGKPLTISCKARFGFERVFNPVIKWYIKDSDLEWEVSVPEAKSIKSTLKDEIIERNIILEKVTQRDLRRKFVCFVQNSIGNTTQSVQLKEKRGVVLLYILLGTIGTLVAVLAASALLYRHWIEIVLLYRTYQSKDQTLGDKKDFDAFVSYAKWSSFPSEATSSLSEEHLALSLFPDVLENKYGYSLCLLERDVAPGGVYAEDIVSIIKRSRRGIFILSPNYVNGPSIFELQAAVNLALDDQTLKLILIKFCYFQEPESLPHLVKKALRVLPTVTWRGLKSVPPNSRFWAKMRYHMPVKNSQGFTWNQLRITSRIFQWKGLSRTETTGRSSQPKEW

On to “Human recombinant IL-18 (R&D Systems #9124-IL-050/CF) (from UniProt Q14116 1-193) (ligand)”, for which the EC50, NF-κB reporter activity in HEK-BLUE IL-18 cells came out at 0.38 pM.
